Experimental data reported in paper PMC10713552 (Communications Biology, 2023).

Tests used:
[1] = target: D614G-Hexapro (WT) spike ectodomain (SARS-CoV-2 Wuhan-Hu-1 D614G, D614G); test: BLI
[2] = target: Omicron BA.1 spike protein ectodomain (BLI) (SARS-CoV-2 Omicron BA.1, strain); test: BLI

Binder | Kd [1] | koff [1] | kon [1] | Kd [2] | koff [2] | kon [2]
0317-IN3_T65W (antibody, V domains shown, source: Expi293F, transfected) VH: QVQLQQWGPGLVNPSETLSLTCSVSGGSFATENYYWSWIRQHPGEGLEWIGNIYFSGNWYYNPSLNNRFTISFDTSKNHLSLKLPSVTAADTAVYYCARGTIYFDISGYRRVDPFHIWGQGTMVIVSS VL: not shown | 0.00141 µM | 0.000282 s⁻¹ | 199000 M⁻¹ s⁻¹ | 0.0163 µM | 0.000834 s⁻¹ | 51200 M⁻¹ s⁻¹
0335-LN3_T65V (antibody, V domains shown, source: Expi293F, transfected) VH: QVQLQQWGPGLVNPSETLSLTCSVSGGSFATENYYWSWIRQHPGEGLEWIGNIYFSGNVYYNPSLNNRFTISFDTSKNHLSLKLPSVTAADTAVYYCARGTIYFDLSGYRRVDPFHIWGQGTMVIVSS VL: not shown | 0.135 µM | 0.000502 s⁻¹ | 3730 M⁻¹ s⁻¹ | 0.0492 µM | 0.00196 s⁻¹ | 39700 M⁻¹ s⁻¹
0327-LN3_T65L (antibody, V domains shown, source: Expi293F, transfected) VH: QVQLQQWGPGLVNPSETLSLTCSVSGGSFATENYYWSWIRQHPGEGLEWIGNIYFSGNLYYNPSLNNRFTISFDTSKNHLSLKLPSVTAADTAVYYCARGTIYFDLSGYRRVDPFHIWGQGTMVIVSS VL: not shown | 0.183 µM | 0.00127 s⁻¹ | 6950 M⁻¹ s⁻¹ | 0.0586 µM | 0.00147 s⁻¹ | 25100 M⁻¹ s⁻¹
0388-YN3_T65Q (antibody, V domains shown, source: Expi293F, transfected) VH: QVQLQQWGPGLVNPSETLSLTCSVSGGSFATENYYWSWIRQHPGEGLEWIGNIYFSGNQYYNPSLNNRFTISFDTSKNHLSLKLPSVTAADTAVYYCARGTIYFDYSGYRRVDPFHIWGQGTMVIVSS VL: not shown | 1.91 µM | 0.00186 s⁻¹ | 973 M⁻¹ s⁻¹ | 0.0377 µM | 0.00058 s⁻¹ | 15400 M⁻¹ s⁻¹
0348-MN3_T65N (antibody, V domains shown, source: Expi293F, transfected) VH: QVQLQQWGPGLVNPSETLSLTCSVSGGSFATENYYWSWIRQHPGEGLEWIGNIYFSGNNYYNPSLNNRFTISFDTSKNHLSLKLPSVTAADTAVYYCARGTIYFDMSGYRRVDPFHIWGQGTMVIVSS VL: not shown | 0.13 µM | 9.93e-05 s⁻¹ | 765 M⁻¹ s⁻¹ | 0.043 µM | 0.00196 s⁻¹ | 45700 M⁻¹ s⁻¹
0338-MN3_T65A (antibody, V domains shown, source: Expi293F, transfected) VH: QVQLQQWGPGLVNPSETLSLTCSVSGGSFATENYYWSWIRQHPGEGLEWIGNIYFSGNAYYNPSLNNRFTISFDTSKNHLSLKLPSVTAADTAVYYCARGTIYFDMSGYRRVDPFHIWGQGTMVIVSS VL: not shown | 0.373 µM | 0.000121 s⁻¹ | 325 M⁻¹ s⁻¹ | 0.025 µM | 0.00154 s⁻¹ | 61800 M⁻¹ s⁻¹
0354-MN3_T65V (antibody, V domains shown, source: Expi293F, transfected) VH: QVQLQQWGPGLVNPSETLSLTCSVSGGSFATENYYWSWIRQHPGEGLEWIGNIYFSGNVYYNPSLNNRFTISFDTSKNHLSLKLPSVTAADTAVYYCARGTIYFDMSGYRRVDPFHIWGQGTMVIVSS VL: not shown | 0.292 µM | 0.00118 s⁻¹ | 4030 M⁻¹ s⁻¹ | 0.0676 µM | 0.00153 s⁻¹ | 22700 M⁻¹ s⁻¹
0331-LN3_T65Q (antibody, V domains shown, source: Expi293F, transfected) VH: QVQLQQWGPGLVNPSETLSLTCSVSGGSFATENYYWSWIRQHPGEGLEWIGNIYFSGNQYYNPSLNNRFTISFDTSKNHLSLKLPSVTAADTAVYYCARGTIYFDLSGYRRVDPFHIWGQGTMVIVSS VL: not shown | 0.00118 µM | 0.00083 s⁻¹ | 703000 M⁻¹ s⁻¹ | 0.0382 µM | 0.00223 s⁻¹ | 58400 M⁻¹ s⁻¹
0350-MN3_T65Q (antibody, V domains shown, source: Expi293F, transfected) VH: QVQLQQWGPGLVNPSETLSLTCSVSGGSFATENYYWSWIRQHPGEGLEWIGNIYFSGNQYYNPSLNNRFTISFDTSKNHLSLKLPSVTAADTAVYYCARGTIYFDMSGYRRVDPFHIWGQGTMVIVSS VL: not shown | 0.643 µM | 0.00015 s⁻¹ | 233 M⁻¹ s⁻¹ | 0.0385 µM | 0.000871 s⁻¹ | 22700 M⁻¹ s⁻¹
0358-N3_T65D (antibody, V domains shown, source: Expi293F, transfected) VH: QVQLQQWGPGLVNPSETLSLTCSVSGGSFATENYYWSWIRQHPGEGLEWIGNIYFSGNDYYNPSLNNRFTISFDTSKNHLSLKLPSVTAADTAVYYCARGTIYFDRSGYRRVDPFHIWGQGTMVIVSS VL: not shown | – | – | 174 M⁻¹ s⁻¹ | 0.0688 µM | 0.000857 s⁻¹ | 12500 M⁻¹ s⁻¹
0347-MN3_T65M (antibody, V domains shown, source: Expi293F, transfected) VH: QVQLQQWGPGLVNPSETLSLTCSVSGGSFATENYYWSWIRQHPGEGLEWIGNIYFSGNMYYNPSLNNRFTISFDTSKNHLSLKLPSVTAADTAVYYCARGTIYFDMSGYRRVDPFHIWGQGTMVIVSS VL: not shown | 0.88 µM | 0.000233 s⁻¹ | 264 M⁻¹ s⁻¹ | 0.0397 µM | 0.00209 s⁻¹ | 52700 M⁻¹ s⁻¹
0379-YN3_T65F (antibody, V domains shown, source: Expi293F, transfected) VH: QVQLQQWGPGLVNPSETLSLTCSVSGGSFATENYYWSWIRQHPGEGLEWIGNIYFSGNFYYNPSLNNRFTISFDTSKNHLSLKLPSVTAADTAVYYCARGTIYFDYSGYRRVDPFHIWGQGTMVIVSS VL: not shown | 2 µM | 0.000202 s⁻¹ | 101 M⁻¹ s⁻¹ | 0.0893 µM | 0.00105 s⁻¹ | 11700 M⁻¹ s⁻¹
0307-IN3_T65K (antibody, V domains shown, source: Expi293F, transfected) VH: QVQLQQWGPGLVNPSETLSLTCSVSGGSFATENYYWSWIRQHPGEGLEWIGNIYFSGNKYYNPSLNNRFTISFDTSKNHLSLKLPSVTAADTAVYYCARGTIYFDISGYRRVDPFHIWGQGTMVIVSS VL: not shown | 0.000208 µM | 5.6e-05 s⁻¹ | 269000 M⁻¹ s⁻¹ | 0.0317 µM | 0.000872 s⁻¹ | 27500 M⁻¹ s⁻¹
0386-YN3_T65N (antibody, V domains shown, source: Expi293F, transfected) VH: QVQLQQWGPGLVNPSETLSLTCSVSGGSFATENYYWSWIRQHPGEGLEWIGNIYFSGNNYYNPSLNNRFTISFDTSKNHLSLKLPSVTAADTAVYYCARGTIYFDYSGYRRVDPFHIWGQGTMVIVSS VL: not shown | 0.00883 µM | 0.00138 s⁻¹ | 156000 M⁻¹ s⁻¹ | 0.0663 µM | 0.00052 s⁻¹ | 7850 M⁻¹ s⁻¹
0345-MN3_T65K (antibody, V domains shown, source: Expi293F, transfected) VH: QVQLQQWGPGLVNPSETLSLTCSVSGGSFATENYYWSWIRQHPGEGLEWIGNIYFSGNKYYNPSLNNRFTISFDTSKNHLSLKLPSVTAADTAVYYCARGTIYFDMSGYRRVDPFHIWGQGTMVIVSS VL: not shown | 0.346 µM | 7.97e-05 s⁻¹ | 230 M⁻¹ s⁻¹ | 0.0414 µM | 0.00172 s⁻¹ | 41600 M⁻¹ s⁻¹
0340-MN3_T65E (antibody, V domains shown, source: Expi293F, transfected) VH: QVQLQQWGPGLVNPSETLSLTCSVSGGSFATENYYWSWIRQHPGEGLEWIGNIYFSGNEYYNPSLNNRFTISFDTSKNHLSLKLPSVTAADTAVYYCARGTIYFDMSGYRRVDPFHIWGQGTMVIVSS VL: not shown | 0.371 µM | 7.27e-05 s⁻¹ | 196 M⁻¹ s⁻¹ | 0.0482 µM | 0.0021 s⁻¹ | 43700 M⁻¹ s⁻¹
0383-YN3_T65K (antibody, V domains shown, source: Expi293F, transfected) VH: QVQLQQWGPGLVNPSETLSLTCSVSGGSFATENYYWSWIRQHPGEGLEWIGNIYFSGNKYYNPSLNNRFTISFDTSKNHLSLKLPSVTAADTAVYYCARGTIYFDYSGYRRVDPFHIWGQGTMVIVSS VL: not shown | 0.682 µM | 0.000178 s⁻¹ | 261 M⁻¹ s⁻¹ | 0.0506 µM | 0.00099 s⁻¹ | 19600 M⁻¹ s⁻¹
0319-LN3_T65A (antibody, V domains shown, source: Expi293F, transfected) VH: QVQLQQWGPGLVNPSETLSLTCSVSGGSFATENYYWSWIRQHPGEGLEWIGNIYFSGNAYYNPSLNNRFTISFDTSKNHLSLKLPSVTAADTAVYYCARGTIYFDLSGYRRVDPFHIWGQGTMVIVSS VL: not shown | 0.244 µM | 0.000836 s⁻¹ | 3430 M⁻¹ s⁻¹ | 0.0596 µM | 0.00229 s⁻¹ | 38400 M⁻¹ s⁻¹
0374-N3_T65W (antibody, V domains shown, source: Expi293F, transfected) VH: QVQLQQWGPGLVNPSETLSLTCSVSGGSFATENYYWSWIRQHPGEGLEWIGNIYFSGNWYYNPSLNNRFTISFDTSKNHLSLKLPSVTAADTAVYYCARGTIYFDRSGYRRVDPFHIWGQGTMVIVSS VL: not shown | – | – | 190 M⁻¹ s⁻¹ | 0.0425 µM | 0.000694 s⁻¹ | 16300 M⁻¹ s⁻¹
0346-MN3_T65L (antibody, V domains shown, source: Expi293F, transfected) VH: QVQLQQWGPGLVNPSETLSLTCSVSGGSFATENYYWSWIRQHPGEGLEWIGNIYFSGNLYYNPSLNNRFTISFDTSKNHLSLKLPSVTAADTAVYYCARGTIYFDMSGYRRVDPFHIWGQGTMVIVSS VL: not shown | 3.32 µM | 0.000421 s⁻¹ | 127 M⁻¹ s⁻¹ | 0.0642 µM | 0.00252 s⁻¹ | 39200 M⁻¹ s⁻¹
0330-LN3_T65P (antibody, V domains shown, source: Expi293F, transfected) VH: QVQLQQWGPGLVNPSETLSLTCSVSGGSFATENYYWSWIRQHPGEGLEWIGNIYFSGNPYYNPSLNNRFTISFDTSKNHLSLKLPSVTAADTAVYYCARGTIYFDLSGYRRVDPFHIWGQGTMVIVSS VL: not shown | 0.686 µM | 0.00219 s⁻¹ | 3190 M⁻¹ s⁻¹ | 0.0326 µM | 0.00229 s⁻¹ | 70200 M⁻¹ s⁻¹
0360-N3_T65F (antibody, V domains shown, source: Expi293F, transfected) VH: QVQLQQWGPGLVNPSETLSLTCSVSGGSFATENYYWSWIRQHPGEGLEWIGNIYFSGNFYYNPSLNNRFTISFDTSKNHLSLKLPSVTAADTAVYYCARGTIYFDRSGYRRVDPFHIWGQGTMVIVSS VL: not shown | 0.355 µM | 0.000217 s⁻¹ | 612 M⁻¹ s⁻¹ | 0.0185 µM | 0.000659 s⁻¹ | 35700 M⁻¹ s⁻¹
0318-IN3_T65Y (antibody, V domains shown, source: Expi293F, transfected) VH: QVQLQQWGPGLVNPSETLSLTCSVSGGSFATENYYWSWIRQHPGEGLEWIGNIYFSGNYYYNPSLNNRFTISFDTSKNHLSLKLPSVTAADTAVYYCARGTIYFDISGYRRVDPFHIWGQGTMVIVSS VL: not shown | 0.00107 µM | 0.000222 s⁻¹ | 207000 M⁻¹ s⁻¹ | 0.0294 µM | 0.00117 s⁻¹ | 39800 M⁻¹ s⁻¹
0341-MN3_T65F (antibody, V domains shown, source: Expi293F, transfected) VH: QVQLQQWGPGLVNPSETLSLTCSVSGGSFATENYYWSWIRQHPGEGLEWIGNIYFSGNFYYNPSLNNRFTISFDTSKNHLSLKLPSVTAADTAVYYCARGTIYFDMSGYRRVDPFHIWGQGTMVIVSS VL: not shown | 0.146 µM | 0.000179 s⁻¹ | 1230 M⁻¹ s⁻¹ | 0.0412 µM | 0.00171 s⁻¹ | 41500 M⁻¹ s⁻¹
